Experimental data: patent US20220204610A1, “PROTEIN BINDERS FOR IRHOM2” (NEW YORK SOCIETY FOR THE RELIEF OF THE RUPTURED AND …, priority 2019, published 2022)

Tested on: human iRhom1
Assay: Peptide binding ELISA, binding specificity (Example 10), iRhom1 peptides
Conditions: antibody 3 μg/ml PBS; peptides coated at 10 μg/ml; normalized to IgM isotype control
Experimental: Another series of peptide binding ELISA experiments was conducted to address the specificity of the purified antibody 4H8-E3 of the invention, i.e. to question whether this antibody specifically recognizes peptides, in particular peptide 3, resembling the extracellular juxtamembrane region adjacent to the TMD1 of human iRhom2, or whether the antibody 4H8-E3 of the invention also binds to peptides reflecting the homologous region of the closely related family member human iRhom1.
In brief, on day 1, Nunc black MaxiSorp® 96-well plates (Thermo Fisher Scientific, USA) were coated overnight with 100 μl per well of single biotinylated peptides 1 to 4, Mix A consisting of peptides 1 to 4, single biotinylated peptides 1b to 4b, and Mix D consisting of peptides 1b to 4b at 10 μg/m1 PBS each (thus, the final concentration of each peptide in both mixes was 2.5 μg/m1) at 4° C. On day 2, peptide solutions were removed and MaxiSorp® plates were blocked with 300 μl per well of Pierce protein-free (TBS) blocking buffer (Thermo Fisher Scientific, USA) at room temperature for 1.5 hours. […] Using an infinite M1000 PRO (Tecan Group, Switzerland) microplate reader, the fluorescence of each well was collected at an excitation wavelength of 435 nm and an emission wavelength of 555 nm.

B1: 4H8-E3: Mouse IgM monoclonal antibody against the human iRhom2 juxtamembrane domain adjacent to TMD1; HC VD SEQ ID NO 33, LC VD SEQ ID NO 40 (antibody, V domains shown)
VH: EVQLQQSGPELVKPGASVKISCKASGYTFTDYYMNWVKQSHGKSLEWIGDINPNNGGTSYNQKFKGKATLTVDKSSNTAYMEFRSLTSEDSAVYYCARRGYYGVDYWGQGTTLTVSS
VL: NIVMTQSPKSMSMSVGERVTLNCKASENVGTYVSWYQQKPEQSPKLLIFGASNRYTGVPDRFIGSGFATDFTLTISSVQAEDLADYHCGQSYSYPYTFGGGTKLEIK
modifications: IgM constant regions; antibody sequence
- binding to Mix D or individually coated peptides 1b, 2b, 3b and 4b (homologous sequences of human iRhom1): does not bind at all
